{"source": "patent US20240254240A1", "about": "(INSTITUTE FOR BASIC SCIENCE, published 2024)", "binders": {"B1": {"name": "3H7H12G4 (previously reported humanized antibody 3H7) (antibody, V domains shown)", "VH": "QVQLVQSGAEVKKPGASVKVSCKASGYTFTSYWMNWVRQAPGQGLEWMGMIHPSDSETRLNQKFMDRVTMTRDTSTSTVYMELSSLRSEDTAVYYCARGLYGNSWGQGTLVTVSS", "VL": "DIQMTQSPSSLSASVGDRVTITCRASQDIGISLNWLQQEPGKAPKRLIYATSSLDSGVPKRFSGSGSGTEFTLTISSLQPEDFATYYCLQYASSPYTFGQGTKVEIK"}, "B2": {"name": "hTAAB, hTie2-activating mouse monoclonal antibody (mouse IgG1) (antibody, V domains shown)", "VH": "QVQLQQPGAELVRPGASVKLSCKASGYSFTSYWMNWVKQRPGQGLEWIGMIHPSDSETRLNQKFMDKATLTVDKSSSTAYMQLSSPTSEDSAVYYCARGLYGNSWGQGTLVTVSA", "VL": "DIQMTQSPSSLSASLGERVSLTCRASQDIGISLNWLQQEPDGTIKRLIYATSSLDSGVPKRFSGSRSGSDYSLTISSLESEDFVDYYCLQYASSPYTFGGGTKLEIK", "notes": "Mouse IgG1 from hybridoma; Only the variable regions are tied to the whole antibody; also called mouse hTAAB; parental hTAAB"}, "B3": {"name": "Human Tie2 ECD (residues 23-735 of human Tie2) (receptor, UniProt Q02763 23-735, looked up)", "chain": "AMDLILINSLPLVSDAETSLTCIASGWRPHEPITIGRDFEALMNQHQDPLEVTQDVTREWAKKVVWKREKASKINGAYFCEGRVRGEAIRIRTMKMRQQASFLPATLTMTVDKGDNVNISFKKVLIKEEDAVIYKNGSFIHSVPRHEVPDILEVHLPHAQPQDAGVYSARYIGGNLFTSAFTRLIVRRCEAQKWGPECNHLCTACMNNGVCHEDTGECICPPGFMGRTCEKACELHTFGRTCKERCSGQEGCKSYVFCLPDPYGCSCATGWKGLQCNEACHPGFYGPDCKLRCSCNNGEMCDRFQGCLCSPGWQGLQCEREGIQRMTPKIVDLPDHIEVNSGKFNPICKASGWPLPTNEEMTLVKPDGTVLHPKDFNHTDHFSVAIFTIHRILPPDSGVWVCSVNTVAGMVEKPFNISVKVLPKPLNAPNVIDTGHNFAVINISSEPYFGDGPIKSKKLLYKPVNHYEAWQHIQVTNEIVTLNYLEPRTEYELCVQLVRRGEGGEGHPGPVRRFTTASIGLPPPRGLNLLPKSQTTLNLTWQPIFPSSEDDFYVEVERRSVQKSDQQNIKVPGNLTSVLLNNLHPREQYVVRARVNTKAQGEWSEDLTAWTLSDILPPQPENIKISNITHSSAVISWTILDGYSISSITIRYKVQGKNEDQHVDVKIKNATITQYQLKGLEPETAYQVDIFAENNIGSSNPAFSHELVTLPES", "notes": "range 23-735; also called hTie2 ECD; hTie2"}}, "key": {"[1]": {"target": "B3", "assay": "SPR (Biacore), hTie2 ECD immobilised on the chip (y axis 'RU (Tie2 ECD)'), antibody as analyte at 128, 256, 512, 1024 and 2048 nM, 1:1 binding model [panel i]"}, "[2]": {"target": "B3", "assay": "SPR (Biacore T200), hTie2 ECD amine-coupled on CM5, antibody as analyte, 1:1 model", "method": "HEPES-buffered saline (0.01 M HEPES and 0.15 M NaCl) containing 3 mM EDTA (ethylenediaminetetraacetic acid) and 0.05% (v/v) P20 detergent (HBS-EP+) was used as reaction and running buffer (BR100669, GE Healthcare). Human Tie2 ECD (produced in-house; residues 23-735 of human Tie2, GenBank accession number: AAH35514.2) was immobilized on the surface of a CM5 sensor chip by amine coupling using 10 mM acetate at a pH of 5.5. […] Analytes bound to the sensor chips were dissociated by washing with HBS-EP+running buffer for 300 seconds. Both association (Kₒₙ, M⁻¹s⁻¹) and dissociation (Koff, s⁻¹) constants were measured at 300-second intervals. The equilibrium dissociation constant (KD, M) was calculated as the ratio of off-rate to on-rate (Koff/kₒₙ). Kinetic parameters were determined with the global fitting function of Biacore Insight Evaluation Software using a 1:1-binding model.\nAfter purification, binding kinetics of the obtained antibodies to hTie2 ECD were evaluated using SPR."}, "[3]": {"target": "T1, hTie2 Ig3-Fn3 D682C/N691C (constitutive Tie2 dimer) (human, UniProt Q02763 349-738, Covalent homodimer: two copies of this chain joined by two intermolecular disulfide bonds between the introduced cysteines (C682 of one chain with C691 of the other); one copy is given.)", "T1 construct": "The positions count on full-length human Tie2; the Ig3-Fn3 entry is used; also called Tie2 dimeric mutant; hTie2 Ig3-Fn3 N691C/D682C", "T1 chain": "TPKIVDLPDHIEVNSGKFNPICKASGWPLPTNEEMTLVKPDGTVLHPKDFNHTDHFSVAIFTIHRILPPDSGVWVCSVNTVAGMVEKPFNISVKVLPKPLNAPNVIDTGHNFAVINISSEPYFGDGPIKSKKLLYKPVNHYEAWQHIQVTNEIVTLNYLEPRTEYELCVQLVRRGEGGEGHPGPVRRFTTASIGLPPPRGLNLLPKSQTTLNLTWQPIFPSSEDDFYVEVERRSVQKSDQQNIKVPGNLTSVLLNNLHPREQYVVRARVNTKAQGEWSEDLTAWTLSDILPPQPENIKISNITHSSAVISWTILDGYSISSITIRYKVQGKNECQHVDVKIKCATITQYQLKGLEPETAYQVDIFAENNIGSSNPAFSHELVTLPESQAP", "assay": "size-exclusion chromatography and negative-stain EM of the complex"}, "[4]": {"target": "the molecule itself", "assay": "SEC-MALS (self-association)"}}, "data": [{"binder": "B1", "values": [{"measurement": "Kd", "setting": "[1]", "result": 1100, "unit": "nM"}, {"measurement": "koff", "setting": "[1]", "result": 0.003, "unit": "s⁻¹"}, {"measurement": "kon", "setting": "[1]", "result": 2800, "unit": "M⁻¹ s⁻¹"}]}, {"binder": "B2", "values": [{"measurement": "Kd", "setting": "[2]", "result": 4.2, "unit": "nM"}, {"measurement": "koff", "setting": "[2]", "result": 0.0006, "unit": "s⁻¹"}, {"measurement": "kon", "setting": "[2]", "result": 140000, "unit": "M⁻¹ s⁻¹"}, {"measurement": "binding result", "setting": "[3]", "result": "binds"}]}, {"binder": "B3", "values": [{"measurement": "binding result", "setting": "[4]", "result": "no binding (tested: 1 mg/ml)"}]}]}
